From patent US20230250170A1 (Regeneron, published 2023)

Key:
[1] = target: T1, monkey NPR1 on HEK293/mfNPR1 cells in the presence of 10 nM hANP (monkey (Macaca fascicularis); human); experiment: ECL cell-binding immunoassay (MSD), HEK293/mfNPR1, +10 nM hANP
T1 construct: also called HEK293/mfNPR1 +10 nM hANP
Procedure: (§1) Cultures of the cell lines described above were rinsed once in 1×PBS buffer without Ca²⁺/Mg²⁺ and incubated for 10 minutes at 37° C. with Enzyme Free Cell Dissociation Solution to detach cells from the flask. The collected cell pellets were washed once with and resuspended in 1×PBS with Ca²⁺/Mg²⁺ and then cells were counted with a Cellometer™ Auto T4 cell counter (Nexcelom Bioscience, Lawrence, Mass.). Approximately 2.0×10⁴ cells per well were seeded onto 96-well carbon electrode plates (Meso Scale Diagnostics, Rockville, Md.) and incubated for 1 hour at 37° C. Nonspecific binding sites were blocked using 2% BSA (w/v) in 1×PBS containing Ca²⁺/Mg²⁺ for 1 h at room temperature. Subsequently, HEK293/hNPR1 and HEK293/mfNPR1 cells were incubated for 0.5 hour at room temperature with 10 nM hANP (Tocris, Minneapolis, Minn.), 100 nM hBNP (Tocris, Minneapolis, Minn.), or sample dilution buffer alone, while HEK293 cells were treated with sample dilution buffer only. Without washing, serial dilutions of anti-NPR1, Comparator 1 or the isotype control antibody, ranging from 1.7 pM to 100 nM, or buffer containing no antibody were added to the cells followed by 1 hour incubation at room temperature. Plates were then washed to remove unbound antibodies, hANP, and hBNP using an AquaMax2000 plate washer with a cell washing head (MDS Analytical Technologies, Sunnyvale, Calif.). The plate-bound antibodies were detected with a SULFO-TAG™-conjugated polyclonal goat anti-human IgG antibody specific for heavy and light chains (Jackson Immunoresearch, West Grove, Pa.) that was incubated with the cells for 1 hour at room temperature.
(§2) After washes, plates were developed with Read Buffer (Meso Scale Diagnostics, Rockville, Md.) according to manufacturer's recommended procedure and luminescent signals were recorded with a SECTOR Imager 600 (Meso Scale Diagnostics, Rockville, Md.). The binding signals in a unit of RLU were analyzed as a function of the antibody concentration and data were fitted with a sigmoidal (four-parameter logistic) dose-response model using R statistical package (open source).

[2] = target: T2, dog NPR1 extracellular domain expressed with a C-terminal myc-myc-hexahistidine (dog); experiment: SPR Biacore 8K, mAb captured via anti-hFc, 25 C
T2 chain: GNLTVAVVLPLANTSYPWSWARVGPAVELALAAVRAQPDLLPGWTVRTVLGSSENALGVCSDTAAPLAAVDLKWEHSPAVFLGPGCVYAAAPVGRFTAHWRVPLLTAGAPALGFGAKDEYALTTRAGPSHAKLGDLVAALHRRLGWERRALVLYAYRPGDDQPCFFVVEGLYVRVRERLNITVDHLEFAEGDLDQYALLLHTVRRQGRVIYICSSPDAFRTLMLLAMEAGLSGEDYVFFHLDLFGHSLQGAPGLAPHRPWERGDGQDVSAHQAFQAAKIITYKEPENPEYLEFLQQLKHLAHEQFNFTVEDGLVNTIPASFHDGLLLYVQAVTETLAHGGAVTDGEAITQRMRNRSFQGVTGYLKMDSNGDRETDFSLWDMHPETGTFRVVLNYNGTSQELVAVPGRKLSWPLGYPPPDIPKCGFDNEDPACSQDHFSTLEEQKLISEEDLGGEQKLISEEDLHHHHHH
Procedure: (§3) The equilibrium dissociation constant (KD) for different NPR1 reagents binding to purified anti-NPR1 monoclonal antibodies (mAbs) were determined using a real-time surface plasmon resonance (SPR) based Biacore 8k biosensor. All binding studies were performed in 10 mM HEPES, 150 mM NaCl, 3 mM EDTA, and 0.05% v/v Surfactant P20, pH 7.4 (HBS-EP) running buffer at 25° C. and 37° C. The Biacore CM5 sensor chip surface was first derivatized by amine coupling with anti-human Fc specific antibody to capture anti-NPR1 mAbs. Binding studies were performed on human NPR1 extracellular domain expressed with a C-terminal myc-myc-hexahistidine (hNPR1-MMH; SEQ ID NO:74), monkey NPR1 extracellular domain expressed with a C-terminal myc-myc-hexahistidine (mfNPR1-MMH; SEQ ID NO:75), mouse NPR1 extracellular domain expressed with a C-terminal myc-myc-hexahistidine (mNPR1-MMH; SEQ ID NO:76), dog NPR1 extracellular domain expressed with a C-terminal myc-myc-hexahistidine (dog_NPR1-MMH; SEQ ID NO:77), pig NPR1 extracellular domain expressed with a C-terminal myc-myc-hexahistidine (pig_NPR1-MMH; SEQ ID NO:78), and hNPR1-MMH+10×hANP.
(§4) Different concentrations (40 nM-0.625 nM, 4-fold serial dilutions) of hNPR1-MMH, mfNPR1-MMH, hNPR1-MMH in the presence of 10-fold concentration of hANP, or a fixed concentration (40 nM) of mNPR1-MMH, dog_NPR1-MMH, pig_NPR1-MMH were prepared in HBS-EP running buffer, and then injected for 150 sec at a flow rate of 30 μL/min, while the dissociation of mAb bound different NPR1 reagents was monitored for 30 minutes in HBS-EP running buffer. At the end of each cycle, the anti-NPR1 mAb capture surface was regenerated using a 12 sec injection of 10 mM phosphoric acid. The association rate (ka) and dissociation rate (kd) were determined by fitting the real-time binding sensorgrams to a 1:1 binding model with mass transport limitation using Biacore insight evaluation software. Binding dissociation equilibrium constant (KD) and dissociative half-life (t½) were calculated from the kinetic rates as: […]

[3] = target: T3, pig NPR1 extracellular domain expressed with a C-terminal myc-myc-hexahistidine (pig); experiment: SPR Biacore 8K, mAb captured via anti-hFc, 25 C
T3 chain: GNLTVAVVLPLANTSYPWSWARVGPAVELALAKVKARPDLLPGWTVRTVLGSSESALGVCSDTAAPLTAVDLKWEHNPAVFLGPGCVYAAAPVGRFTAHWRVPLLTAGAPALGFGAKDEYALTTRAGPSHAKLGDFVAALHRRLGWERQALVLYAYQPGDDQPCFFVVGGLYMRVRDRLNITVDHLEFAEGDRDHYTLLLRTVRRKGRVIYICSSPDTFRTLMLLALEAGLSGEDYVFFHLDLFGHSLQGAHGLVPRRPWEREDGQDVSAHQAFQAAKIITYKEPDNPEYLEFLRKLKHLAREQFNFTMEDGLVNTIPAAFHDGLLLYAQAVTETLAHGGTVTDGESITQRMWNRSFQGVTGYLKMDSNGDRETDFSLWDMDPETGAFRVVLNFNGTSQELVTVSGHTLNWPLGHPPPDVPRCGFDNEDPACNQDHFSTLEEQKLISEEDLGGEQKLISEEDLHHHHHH
Procedure: as §3, §4

[4] = target: T4, mouse NPR1 extracellular domain expressed with a C-terminal myc-myc-hexahistidine (mouse, UniProt P18293 29-469); experiment: SPR Biacore 8K, mAb captured via anti-hFc, 25 C
T4 construct: also called mNPR1-MMH
Procedure: as §3, §4

[5] = target: T2, dog NPR1 extracellular domain expressed …; experiment: SPR Biacore 8K, mAb captured via anti-hFc, 37 C
Procedure: as §3, §4

[6] = target: T3, pig NPR1 extracellular domain expressed …; experiment: SPR Biacore 8K, mAb captured via anti-hFc, 37 C
Procedure: as §3, §4

[7] = target: T4, mouse NPR1 extracellular domain …; experiment: SPR Biacore 8K, mAb captured via anti-hFc, 37 C
Procedure: as §3, §4
Target sequence in this assay (P18293 other isoform, or with tags, fused parts or gaps): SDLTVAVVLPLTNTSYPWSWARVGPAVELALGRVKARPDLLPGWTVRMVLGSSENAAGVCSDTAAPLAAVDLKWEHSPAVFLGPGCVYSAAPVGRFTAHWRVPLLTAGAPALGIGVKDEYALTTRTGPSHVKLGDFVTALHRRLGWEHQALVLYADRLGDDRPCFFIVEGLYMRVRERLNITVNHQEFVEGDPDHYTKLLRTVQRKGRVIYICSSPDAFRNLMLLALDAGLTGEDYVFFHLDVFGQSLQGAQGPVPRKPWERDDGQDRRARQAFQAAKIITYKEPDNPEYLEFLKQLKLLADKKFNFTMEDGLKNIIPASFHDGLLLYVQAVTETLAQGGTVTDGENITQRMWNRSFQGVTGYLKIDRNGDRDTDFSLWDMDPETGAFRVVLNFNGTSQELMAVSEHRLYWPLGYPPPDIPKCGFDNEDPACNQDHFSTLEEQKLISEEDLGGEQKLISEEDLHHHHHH

[8] = target: T5, monkey NPR1 on HEK293/mfNPR1 cells in the presence of 100 nM hBNP (monkey (Macaca fascicularis); human); experiment: ECL cell-binding immunoassay (MSD), HEK293/mfNPR1, +100 nM hBNP
T5 construct: also called HEK293/mfNPR1 +100 nM hBNP
T5 sequence (P16860 103-134): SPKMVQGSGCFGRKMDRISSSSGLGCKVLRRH
Procedure: as §1, §2

[9] = target: T6, monkey (Macaca fascicularis) NPR1 on HEK293/mfNPR1 cells (monkey (Macaca fascicularis)); experiment: ECL cell-binding immunoassay (MSD), HEK293/mfNPR1, no ligand added
T6 construct: whole, on cells; No ligand added
Procedure: as §1, §2

T1 sequence (P01160 124-151): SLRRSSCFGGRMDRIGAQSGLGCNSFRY

| Binder | EC50 [1] | 40 nM Ag Bound (RU) [2] | binding result [2] | 40 nM Ag Bound (RU) [3] | 40 nM Ag Bound (RU) [4] | binding result [4] | 40 nM Ag Bound (RU) [5] | 40 nM Ag Bound (RU) [6] | binding result [6] | 40 nM Ag Bound (RU) [7] | EC50 [8] | EC50 [9] | Kd [3] | koff [3] | kon [3] | t½ [3] | Kd [6] | koff [6] | kon [6] | t½ [6] |
| --- | --- | --- | --- | --- | --- | --- | --- | --- | --- | --- | --- | --- | --- | --- | --- | --- | --- | --- | --- | --- |
| H4H22034 (antibody, human IgG4 S228P, kappa, V domains shown, also called H4H22034N; mAb22034) VH: EVQLLESGGDLVQPGGSLRLSCAASGFTFSDYAMIWVRQTPGKGLEWVSGISGGGGSTDYADSVKGRFTTSRDNVKNAMYLQMNSLRTEDTAVYYCAREDQLPSYHNYYGMDVWGQGTTVTVSS VL: DIQMTQSPSSVSASVGDRVTITCRASQGINNYLAWFQQKPGKAPKSLIYGASSLQSGVPSKFSGSRSGIDFTLTISSLQPEDFATYYCQQYNSYPYTFGQGTKLEIKR | 0.67 nM | 0 RU | no binding (tested: 40 nM) | 0 RU | 0 RU | no binding (tested: 40 nM) | 0 RU | 0 RU | no binding (tested: 40 nM) | 0 RU | 0.42 nM | 0.33 nM | – | – | – | – | – | – | – | – |
| REGN7541 (antibody, human IgG4 S228P, kappa, V domains shown, also called mAb38067) VH: EVQLVESGGGLVQPGGSLRLSCAASGFTFSSYAMSWVRQAPGKGLEWVSTISGSGTNTYYADSVKGRFTISNDNSKNTLYLQMNSLRAEDTAVYYCANYDILTGHSFEYWGQGTLVTVSS VL: AIQMTQSPSSLSASVGDRVTITCRASQGIRNDLGWYQQKPGKAPELLIYAASRLPSGVPLRFSGSGSGTDFTLTISSLQPEDVATYYCLQDYNYPFTFGPGTKVDIKR | 2.9 nM | 0 RU | no binding (tested: 40 nM) | 0 RU | 0 RU | no binding (tested: 40 nM) | 0 RU | 0 RU | no binding (tested: 40 nM) | 0 RU | 0.92 nM | 1.4 nM | – | – | – | – | – | – | – | – |
| REGN7544 (antibody, human IgG4 S228P, kappa, V domains shown, also called mAb38072) VH: EVQLVESGGGLVQPGGSLRLSCAASGFSFVSYVMGWVRQAPGKGLEWVSSISGSLTNTYYADPVKGRFTISRDNSKNTLYLQMNSLRAEDTAAYYCVTYDILTGHLFDYWGQGTLVTVSS VL: AIQMTQSPSSLSASVGDRVTITCRSSQGIRNDFGWYQQKPGKAPKLLIYAASRLQSGVPSRFSGSGSGTDFTLTINNLQPEDFATYYCLQDYTYPFTFGPGTKVDIKR | 4.2 nM | 0 RU | no binding (tested: 40 nM) | 2 RU | 0 RU | no binding (tested: 40 nM) | 0 RU | 5 RU | – | 0 RU | 1.7 nM | 1.7 nM | 122 nM | 0.00679 s⁻¹ | 55800 M⁻¹ s⁻¹ | 1.7 min | 98.1 nM | 0.00947 s⁻¹ | 96500 M⁻¹ s⁻¹ | 1.2 min |
| REGN7548 (antibody, human IgG4 S228P, kappa, V domains shown, also called mAb38090) VH: QVQLVQSGAEVKKPGASVKVSCKASGYTFTSYYIHWVRQAPGQGLEWMGIISPSDGYTSYAQNFQGRVTMTRDTSTNTVYMDLSSLRSEDTAMFYCARNDPLTTVALDYWGQGTLVTVSS VL: AIQMTQSPSSLSASVGDRVTITCRASQGIRYDLGWFQQKPGKAPKLLIHAASSLQSGVPSRFSGSGSGTDFTLTISSLQPEDFATYYCLQDYNYPFTFGQGTKLEIKR | 1.2 nM | 0 RU | no binding (tested: 40 nM) | 11 RU | 0 RU | no binding (tested: 40 nM) | 0 RU | 14 RU | – | 0 RU | 0.56 nM | 0.56 nM | 35.8 nM | 0.00427 s⁻¹ | 119000 M⁻¹ s⁻¹ | 2.7 min | 42.1 nM | 0.00927 s⁻¹ | 220000 M⁻¹ s⁻¹ | 1.2 min |
